The results in this text go back to article PMC5716094.

Where two headings read alike, the source gives them in different places.

Series [1] deals with T1, ΔBTRF2 (human, UniProt Q15554 87-542, del43-86). Briefly: fluorescence anisotropy.
Series [2] concerns the target T2, TRF2 (human, UniProt Q15554 43-542). The series is described as follows: fluorescence anisotropy.
For series [3], the target named is T1, ΔBTRF2. The series is described as follows: fluorescence anisotropy. The source holds these as a separate data set.
The target in series [4] is T2, TRF2. Briefly: fluorescence anisotropy. The source holds these as a separate data set. In general terms: Polarisation of emitted light reports the rotation of a fluorescent probe.
In series [5] the target is T3, B-domain of TRF2 (human, UniProt Q15554 43-86).
T3 chain: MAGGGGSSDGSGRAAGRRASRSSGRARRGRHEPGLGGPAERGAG
The series is described as follows: SAXS.

T1 sequence (Q15554 87-542, stated change not applied): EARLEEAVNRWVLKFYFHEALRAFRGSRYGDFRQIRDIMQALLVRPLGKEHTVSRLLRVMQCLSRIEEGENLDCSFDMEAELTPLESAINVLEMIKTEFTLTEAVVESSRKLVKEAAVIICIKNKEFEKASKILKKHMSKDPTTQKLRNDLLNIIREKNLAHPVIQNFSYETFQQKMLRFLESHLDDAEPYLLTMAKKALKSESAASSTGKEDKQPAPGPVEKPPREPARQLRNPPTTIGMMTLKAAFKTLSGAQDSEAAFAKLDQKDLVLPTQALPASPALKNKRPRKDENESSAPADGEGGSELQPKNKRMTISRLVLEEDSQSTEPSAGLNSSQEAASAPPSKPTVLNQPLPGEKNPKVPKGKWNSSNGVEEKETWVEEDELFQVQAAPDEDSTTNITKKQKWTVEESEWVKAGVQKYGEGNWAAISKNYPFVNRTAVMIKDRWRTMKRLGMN

B1: R5 duplex (dsDNA)
DNA 1: GTTAGGGTTAGGGTTAGGGTTAGGGTTAGGGTTAG
DNA 2: CTAACCCTAACCCTAACCCTAACCCTAACCCTAAC
On to B1, for which the binding signal in series [1] was about 2 fold higher Kd than TRF2; in series [2] it was about 2 fold lower Kd than ΔBTRF2.

B2: R2 duplex (dsDNA)
DNA 1: GTTAGGGTTAGGGTTAG
DNA 2: CTAACCCTAACCCTAAC
With B2, the binding result in series [3] and in series [5] was “binds” in each case. For the same molecule, the binding signal in series [4] is about 2 fold lower Kd than ΔBTRF2.
